Reference: article doi:10.1101/2022.03.12.484092

Target: SARS-CoV-2 nucleocapsid N-terminal domain (NTD) (SARS-CoV-2, UniProt P0DTC9 41-174)
Assay: fluorescence intensity titration

UCUCUAAACG (ssRNA) [10-mer RNA]
binding result: binds
